T1: epithin (mouse, UniProt P56677 615-855, limits assumed)
T1 construct: also called mouse homologue of MT-SP1; A11 (Epithin)
T1 sequence (looked up): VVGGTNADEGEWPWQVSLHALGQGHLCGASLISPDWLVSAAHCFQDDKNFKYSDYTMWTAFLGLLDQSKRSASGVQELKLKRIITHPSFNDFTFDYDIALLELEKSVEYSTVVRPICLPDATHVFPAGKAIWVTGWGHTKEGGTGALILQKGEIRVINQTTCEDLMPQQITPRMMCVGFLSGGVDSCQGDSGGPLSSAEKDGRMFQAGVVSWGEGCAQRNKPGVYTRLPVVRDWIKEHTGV

T2: human MT-SP1 protease domain (human, UniProt Q9Y5Y6 615-855)
T2 construct: domain: protease domain; also called hMT-SP1; matriptase
T2 sequence (looked up): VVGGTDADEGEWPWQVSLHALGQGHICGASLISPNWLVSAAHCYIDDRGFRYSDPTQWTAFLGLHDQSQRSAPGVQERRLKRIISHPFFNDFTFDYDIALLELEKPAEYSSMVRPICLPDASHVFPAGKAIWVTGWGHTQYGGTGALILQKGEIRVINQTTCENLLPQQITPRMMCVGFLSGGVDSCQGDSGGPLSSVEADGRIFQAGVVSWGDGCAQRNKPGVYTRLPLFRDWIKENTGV


What was measured:
epithin = target: T1, epithin; assay: steady state kinetics, inhibition of epithin
[1] = target: T2, human MT-SP1 protease domain; assay: steady state kinetics
Procedure: (§1) Briefly, all reactions were carried out in 50 mM Tris, pH 8.8, 50 mM NaCl, 0.01% Tween-20 in 96-well, medium binding, flat-bottomed plate (Corning), and cleavage of substrate (Spectrazyme-tPA (hexahydrotyrosyl-Gly-Arg-pNA), American Diagnostica, Greenwich, Conn.) was monitored in a UVmax Microplate Reader (Molecular Devices Corporation, Palo Alto, Calif.). […] Reactions to determine the IC₅₀'s were carried out by incubating 0.2 nM enzyme with inhibitor for >5 hours to assure steady-state behavior of the system. […] Inhibitor activity was also measured using the chromogenic substrate Spectrafluor tPA (American diagnostica, Inc.). […] Kaleidagraph 3.6 was used to fit all graphs and equations (Synergy Software, Reading, Pa.).

[2] = target: T2, human MT-SP1 protease domain; assay: steady state kinetics, tight-binding inhibition of Spectrazyme-tPA cleavage
Procedure: as §1

[3] = target: T2, human MT-SP1 protease domain; assay: steady state kinetics, probably pM (the same paragraph prints 720 µM for what Table 3 gives as 0.72 nM)
Procedure: as §1

| Binder | Ki (epithin) [nM] | fold change of KI over wild-type A11 [1] [fold] | Ki [2] [nM] | Ki [3] [nM] |
| --- | --- | --- | --- | --- |
| A11 Fab (Fab, V domains shown, Human Fab from a naive phage library, VH3 heavy chain and Vkappa3 light chain; The Fab was made in E. coli for biochemical assays and in T. reesei for crystallisation; also called Fab A11; recombinant A11 Fab) VH: EVQLVQSGGGLVKPGGSLRLSCAASGFTFSSYAMSWVRQAPGKGLEWVSAISGSGGSTYYADSVKGRFTISRDNSKNTLYLQMSSLRAEDTAVYYCVKDLGIAARRFVSGAFDIWGQGTMVTVSS VL: EIVLTQSPGTLSLSPGERATLSCRASQSVSSSYLAWYQQKPGQAPRLLIYGASTRATGIPARFSGSGSGTDFTLTINSLEPEDFAVYYCQQRSNWPPGYTFGQGTKVEIKR | 87 | – | – | – |
| A11 H R100aA (Fab, V domains shown, also called ArgH100aAla; A11 mutant ArgH100aAla) VH: EVQLVQSGGGLVKPGGSLRLSCAASGFTFSSYAMSWVRQAPGKGLEWVSAISGSGGSTYYADSVKGRFTISRDNSKNTLYLQMSSLRAEDTAVYYCVKDLGIAAARFVSGAFDIWGQGTMVTVSS VL: EIVLTQSPGTLSLSPGERATLSCRASQSVSSSYLAWYQQKPGQAPRLLIYGASTRATGIPARFSGSGSGTDFTLTINSLEPEDFAVYYCQQRSNWPPGYTFGQGTKVEIKR | – | ~2 | 1.5 | – |
| A11 H R100bA (Fab, V domains shown, also called ArgH100bAla; A11 mutant ArgH100bAla) VH: EVQLVQSGGGLVKPGGSLRLSCAASGFTFSSYAMSWVRQAPGKGLEWVSAISGSGGSTYYADSVKGRFTISRDNSKNTLYLQMSSLRAEDTAVYYCVKDLGIAARAFVSGAFDIWGQGTMVTVSS VL: EIVLTQSPGTLSLSPGERATLSCRASQSVSSSYLAWYQQKPGQAPRLLIYGASTRATGIPARFSGSGSGTDFTLTINSLEPEDFAVYYCQQRSNWPPGYTFGQGTKVEIKR | – | 250 | 180 | – |
| A11 H R100bK (Fab, V domains shown, also called ArgH100bLys; A11 mutant ArgH100bLys) VH: EVQLVQSGGGLVKPGGSLRLSCAASGFTFSSYAMSWVRQAPGKGLEWVSAISGSGGSTYYADSVKGRFTISRDNSKNTLYLQMSSLRAEDTAVYYCVKDLGIAARKFVSGAFDIWGQGTMVTVSS VL: EIVLTQSPGTLSLSPGERATLSCRASQSVSSSYLAWYQQKPGQAPRLLIYGASTRATGIPARFSGSGSGTDFTLTINSLEPEDFAVYYCQQRSNWPPGYTFGQGTKVEIKR | – | 250 | 180 | – |
| E2 Fab (Fab, V domains shown, also called anti-MT-SP1 Fab antibody E2) VH: QVQLVQSGGGLVKPGGSLRLSCAASGFTFSSYAMSWVRQAPGKGLEWVSAISGSGGSTYYADSVKGRFTISRDNSKNTLYLQMSSLRAEDTAVYYCARPYLTYPQRRGPQNVSPFDNWGQGTMVTVSS VL: DIQMTQSPSSLSASVGDRVTITCRASQGISSYLAWYQQKPGKAPKLLIYAASSLQSGVPSRFSGSGSGTDFTLTISSLQPEDFAVYYCQQHGNLPYTFGDGTKVEIKR | – | – | – | 12000 |

Source: patent US20120141373A1 (University of California, published 2012)
